Experimental data reported in US9610371B2, “Anticancer therapy” (STC.UNM, priority 2005, dated 2017).
Like-named read-outs stand apart in the source and are kept apart here.

Legend:
[1] = rat, in vivo
Description: A 26 week toxicology study was performed in 3 groups of rats. The first group, Cohort 7 (N=3), received three fractionated doses ^213Bi-DOTATOC (specific activity 7.4 MBq ^213Bi/1 μG DOTATOC with a total average cumulative dose of 12.75±1.1 MBq. The second group, Cohort 8 (N=3), received D-lysine (concentration 400 mg/mL) immediately before receiving three fractionated doses ^213Bi-DOTATOC with a specific activity 7.4 MBq ^213Bi/1 μG DOTATOC with a total average cumulative dose of 11.39±0.14 MBq. The third group, cohort 9 (N=3) received 3 fractionated doses of DOTATOC. Rats were injected with 2.56 μg, 0.5 μg, 0.5 μg DOTATOC, on day 1, day 2 and day 3, respectively. As described earlier, each dose was divided into 2 injections separated by a 1 hour interval.
(§1) Organs were harvested and immediately placed in 10% formalin for a minimum of 48 hours. Following fixation in formalin, bone samples were placed in decalcifying solution for 36 hours. Trimmed organs were sent to the TriCore Laboratories (Albuquerque, N. Mex.) where they were embedded in paraffin, sectioned, and stained with Hematoxylin and Eosin (H and E). Histopathologic evaluation was performed by a board certified veterinary pathologist (DFK) who examined the following organs of each animal: heart, lung, kidneys, testicles, spleen, pancreas, pituitary bone marrow, urinary bladder, adrenals, and two different sections of the liver.
(§2) Sections of both the right and left kidneys were examined to determine nephrotoxicity in all cohorts. Bone marrow was examined to evaluate hypoplasia and other lesions in Cohorts 3 and 4. Interstitial nephritis and bone marrow were scored as follows: 0 no lesions, 1 minimal lesions, 2 mild lesions, 3 moderate lesions, and 4 severe lesions.

[2] = Biodistribution in tumor bearing and non-tumor bearing rats; settings: rat, in vivo
Description: FIG. 13: A, B Graphical comparisons of Tumor and Non-Tumor Bearing Rats at 1 hour post injection of ^213Bi-DOTATOC. Columns, means, Bars, SEM, white columns represent non-tumor bearing rats and black columns represent tumor bearing rats. Significance of p<0.05 is represented by a (*).
(§3) For the pathology scoring, to evaluate nephrotoxicity on the 6 treatment groups, a frequency analysis was performed in StatXact-5 using the Jonckheere-Terpstra Test. For all other data, graphs and calculations were performed in SigmaStat®-3 and SigmaPlot®-9 as well as Graph Pad Prism®-4 using the t-test. For all statistical tests results were considered significant when p<0.05. Animal biodistribution and tumor volume data are expressed as the average, plus or minus the SEM.

[3] = 25 day toxicology in tumor bearing male Lewis rats; assay type: in vivo, Lewis rat; settings: rat, in vivo
Description: Toxicology was assessed at 25 days in 4 groups of tumor bearing male Lewis rats (average volume […]). Rats in the first group, Cohort 1, were injected on day 1 only. Rats in second cohort were injected on days 1 and 2, while rats in the third cohort were injected on days 1, 2, and 3. Rats were injected with 2.56 μg, 0.5 μg, 0.5 μg DOTATOC, on day 1, day 2 and day 3, respectively, with a nominal activity of 3.7 MBq. Each dose was divided into 2 injections at 1 hour intervals. The rats received the following cumulative average activities per group: Cohort 1 (N=3) received 4.3±0.7 MBq, Cohort 2 (N=3) received 9.0±0.4 MBq, and Cohort 3 (N=4) received 12.6±0.3 MBq of ^213Bi-DOTATOC. Cohort 4 (N=4) was added as control group and injected twice daily with unlabelled DOTATOC on three consecutive days.
After 24 days, the animals were put into a metabolic cage to collect urine samples for creatinine clearance analysis. Creatine clearance was determined as previously described (20). After 24 hour urine collection, the animals were euthanized with halothane. For blood collection, a cardiac puncture was performed. Blood analysis consisted of hemoglobin (Hgb), hematocrit (Hct), red blood cells (RBC's), and white blood cells (WBC's) with differential, and platelets (Pt's). Additionally T4 and FSH values were assessed using the serum.
Additional groups were then designed to study the effects of the treatment on a somatostatin receptor positive tumor. The first group was designed to study the effects of treatment on large volume tumors (average volume 1720±608 mm^3). This group, Cohort 5 (N=5), received three fractionated doses of ^213Bi-DOTATOC (specific activity 7.4 MBq ^213Bi/1 μG DOTATOC) with a total average cumulative dose of 13.0±0.5 MBq of ^213Bi-DOTATOC. The last cohort, the sixth cohort (N=4), was injected with two fractionated doses, ^213Bi-DOTATOC (specific activity 7.4 MBq ^213Bi/1 μG DOTATOC) with a total average cumulative dose of 22.2±0.7 MBq of ^213Bi-DOTATOC. As described earlier, each dose was divided into 2 injections separated by a 1 hour interval. Tumor response to the treatment was assessed in all cohorts by daily tumor measurements.
as §1, §2, §3

[4] = Biodistribution in tumor bearing and non-tumor bearing rats; settings: rat, in vivo, total radioactivity

C[C@@H](O)[C@@H]1NC(=O)[C@H](CCCCN)NC(=O)[C@@H](Cc2c[nH]c3ccccc23)NC(=O)[C@H](Cc2ccc(O)cc2)NC(=O)[C@@H](NC(=O)[C@@H](Cc2ccccc2)NC(=O)CN2CCN(CC(=O)O)CCN(CC(=O)O)CCN(CC(=O)O)CC2)CSSC[C@@H](C(=O)N[C@H](CO)[C@@H](C)O)NC1=O [^213Bi-DOTATOC, metal not drawn]
FSH or T4 serum values vs control animals [1]: No significant changes | adrenal histopathology [1]: minimal nodular cortical hyperplasia in both adrenals | creatinine clearance vs control group (DOTATOC only) [1]: No difference | hematology results vs control group [1]: did not show any significant differences | liver histopathology [1]: mild or moderate cholangiohepatitis and perivasculitits | lung histopathology [1]: minimal to mild interstitial pneumonia | microcystic degeneration in the pituitary [1]: mild to moderate | microcystic pancreatic degeneration [1]: mild to moderate | rats with one adrenal each with nodular cortical hyperplasia [1]: 2 rats | localization in stomach and muscle, tumor vs non-tumor bearing rats [2]: significantly higher | FSH values vs control animals [3]: No significant changes | average histopathologic score for nephrititis [3]: 1 | hematology results vs control group [3]: did not show any significant differences | histopathological examination of heart, lungs, liver, spleen, urinary bladder [3]: no evidence of treatment induced toxicity | histopathology of testes, adrenals, pancreas [3]: No histopathologic abnormalities | likelihood of interstitial nephrititis with dose [3]: increased with increasing dose | nephrotoxicity with low-dose [3]: minimal nephrotoxicity | toxicity in the high-dose treatment cohort (kidney) [3]: Minimal toxicity | tissue uptake at 3 h ([4]; accumulation of radioactivity in the blood): 0.02 %ID/g | tissue uptake at 3 h ([4]; accumulation of radioactivity in the bone marrow): 0.06 ± 0.02 %ID/g | tissue uptake at 3 h ([4]; accumulation of radioactivity in the kidneys): 11.2 ± 0.46 %ID/g | tissue uptake at 3 h ([4]; accumulation of radioactivity in the liver): 0.14 ± 0.02 %ID/g | tissue uptake at 3 h ([4]; accumulation of radioactivity in the spleen): 0.08 ± 0.01 %ID/g | tissue uptake at 3 h ([4]; accumulation of radioactivity in the stomach): 0.08 ± 0.01 %ID/g | tissue uptake at 3 h ([4]; accumulation of radioactivity in the testis): 0.02 %ID/g
